{"source": "patent US6994974", "about": "(TRUSTEES OF COLUMBIA UNIVERSITY IN THE CITY OF NEW YORK, dated 2006)", "molecular_target": "T1, amyloid-beta peptide (1-40), freshly prepared synthetic (UniProt P05067 672-711, 125I label when used as tracer; residue not stated)", "T1 construct": "domain: amyloid-beta peptide (1-40)", "assay": "radioligand binding to coated microtiter wells"}
{"binder": "TrcHis-chloramphenicol acetyltransferase (CAT) fusion protein (other, also called TrcHis-CAT; not shown: N-terminal TrcHis leader of the Invitrogen control construct) MEKKITGYTTVDISQWHRKEHFEAFQSVAQCTYNQTVQLDITAFLKTVKKNKHKFYPAFIHILARLMNAHPEFRMAMKDGELVIWDSVHPCYTVFHEQTETFSSLWSEYHDDFRQFLHIYSQDVACYGENLAYFPKGFIENMFFVSANPWVSFTSFDLNVANMDNFFAPVFTMGKYYTQGDKVLMPLAIQVHHAVCDGFHVGRMLNELQQYCDEWQGGA", "values": [{"measurement": "binding result", "value": "no binding (tested: 100 nM)"}]}
